Source: the supplement of paper PMC9170038

System: MS2 coat protein
Experiment: apparent KD of MS2 coat protein; designed switch direction (-1 OFF switch, 1 ON switch): -1; higher = weaker reporter binding
Method in brief: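 An oligonucleotide input, 200 uM small-molecule ligand, or no input was present during titration of SNAP-549-labelled MS2 coat protein, which was doubled from 0.7 or 1.5 nM to 3 µM. Designed RNA switches had been transcribed on Illumina chips by stalled E. coli RNA polymerase. Apparent KD per design is the median over clusters of curves fitted to normalised cluster fluorescence.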

[1] = Eterna round: R95, input ligand: FMN 200 uM
[2] = Eterna round: R95, input ligand: microRNA oligo, concentration not stated
[3] = Eterna round: R95, input ligand: none
[4] = input ligand: microRNA oligo, concentration not stated

Sequence | apparent KD of MS2 coat protein (input ligand: FMN 200 uM) | apparent KD of MS2 coat protein (input ligand: none) | apparent KD of MS2 coat protein [1] | apparent KD of MS2 coat protein [2] | apparent KD of MS2 coat protein [3] | apparent KD of MS2 coat protein [4]
GGCCUGUGAGGAUAUUAGUAGUAGAUGAAAUAAACUAUUACUGAGAAGGCACAUGAGGAUCACCCAUGUUGGCC [Mat - Exclusion 4 - Eli Mod - D36] (Eterna round: R97, puzzle: Exclusion 4) | 16.6 nM | 16.1 nM |  |  |  | 
AGUACUAACACGCCAGUGUUAGUACAAUAAGCUUGUGAAACAUGAGGAUCACCCAUGUCCUCAUAAGCUCGUCUUAU [salish99_TOv2_r3_028] (puzzle: Sensor v3, turn-off variant 2) |  |  | 16.9 nM | 677 nM | 15.1 nM | 
CCAUCACAUGAGGAUCACCCAUGUUAGGAUAUCGUGCUGAUACCAUGUAUUGAAGUAGCGAGAAGGAGCGUUGG [Eternabot (L1) Solution 53] (Eterna round: R97, puzzle: Exclusion 1) | 83.6 nM | 48 nM |  |  |  | 
GCAGCAUAGUUAACAUACUGUUACAUGAGGAUCACCCAUGUACAGGAUAUGGUCUGGAUUACAGGCCAGAAGGGUACAAGCUGC [Eli exng3 - 020] (Eterna round: R96, puzzle: Exclusion NG 3) | 10.7 nM | 12.6 nM |  |  |  | 7.8 nM
AGUAACUAUCACGAAAGUGAUAGUUACAAAACAAGUGAAACAUGAGGAUCACCCAUGUCCUCACUUGCUCGUCUUAU [Sensor 3 - 5] (puzzle: Sensor v3, turn-off variant 2) |  |  | 14.2 nM | 128 nM | 13.4 nM | 
AGUGCUGCAGGAUAUUCUAUUAAUUACAUGAGGAUCACCCAUGUGAAUGGACAAGGGUGUGAAGAAGGGUGGUGCG [Omei Ex5 A17h] (Eterna round: R97, puzzle: Exclusion 5) | 375 nM | 605 nM |  |  |  | 
AGUACUAACACGAAAGUGUUAGUACUAUAAGCUUGUGAUACAUGAGGAUCACCCAUGUCCUCAUAAGCUCGUCUUAU [Mat - Sensor v3 - Turn-off var 2 - D101] (puzzle: Sensor v3, turn-off variant 2) |  |  | 19 nM | 1820 nM | 19.6 nM | 
CACGAGCUAGGAUAUACAUGAGGAUCACCCAUGUAAGUCAUGCGGUCACAUCUGACAGGUAGAAGGAGCGCGUC [Teaertete] (puzzle: Exclusion 3) |  |  |  | 37.5 nM |  | 
CAUGAUUGGCGAGGAUAUUGAUCUACAUGGCGACGAGAAGGCGCCUGUCACAUGAGGAUCACCCAUGUGAGUCUGGUGAAUGAG [Ex NG1 #85] (Eterna round: R96, puzzle: Exclusion NG 1) | 67.2 nM | 42.6 nM |  |  |  | 25 nM
UUAAACGGAGGAUAUACAUUUUUUUUAUUAUCCUCAUUAAAACAUGAGGAUCACCCAUGUAGAAGGCCGAAAUU [Mat - Exclusion 2 - Mod of Hog - D86] (puzzle: Exclusion 2) |  |  |  | 91.5 nM |  | 
AGAGUGCUGCGAGGAUAUACAUGAGGAUCACCCAUGUGGAUCUGUGAGGGAAAACCUCACAGGAUGUAGAAGGCGCAGUACUCA [Mat - Exclusion NG 2 - Mod of JL - D50] (Eterna round: R96, puzzle: Exclusion NG 2) | 134 nM | 37.2 nM |  |  |  | 15.8 nM
ACAUGAGGAUCACCCAUGUUCGGCUGGUCCGUUUCGGCUGUCGAGGAUAUAGUUCGGUGUCCGCGCUAGAAGGCGGGAGCUGGC [Aenatbe mod 64] (Eterna round: R96, puzzle: Exclusion NG 3) | 167 nM | 68.5 nM |  |  |  | 39 nM
CCCUCACUUGAGGAUCACCCAAGUCAGGAUAUCUCCCACCCGGCAACAACCGGGUGCCAGAGAAGGGACUCAAA [Xemaques] (Eterna round: R97, puzzle: Exclusion 1) | 17.9 nM | 17 nM |  |  |  | 
GUAGAGUAAGGAUAUGCAGAAUAGGAUAGAAUGGAUAGAAUGCAGAAGGUACAUGAGGAUCACCCAUGUAAUGU [Excluse me!!!! 1 - Jieux - Exclusion 4] (puzzle: Exclusion 4) |  |  |  | 19.3 nM |  | 
CUGAGCAGACGGAGAUCCAACAUGAGGAUCACCCAUGUCUCAAAAGCUUUUUGCUCAUCUUAUUGUACCUUGGUGCU [JL ViennaUCT Edcesobi mod 2] (puzzle: Sensor v3, turn-off variant 1) |  |  | 391 nM | 17.6 nM | 342 nM | 
CUUUUGUGAGGAUAUUAGUAGUAAAAAAAUAAAAUUACUACUGAGAAGGCACAUGAGGAUCACCCAUGUUCUUC [salish99_ex4_r3_038] (puzzle: Exclusion 4) |  |  |  | 17.5 nM |  | 
GUGAAGUAAGGAUAUAGUGGAAAAGAUAAGGUAUGAGAGUUCUAGAAGGUACAUGAGGAUCACCCAUGUUAGGG [JR_Exclu4_Sub085] (Eterna round: R96, puzzle: Exclusion 4) | 324 nM | 360 nM |  |  |  | 212 nM

Sequence | apparent KD of MS2 coat protein (input ligand: FMN 200 uM) | apparent KD of MS2 coat protein (input ligand: none) | apparent KD of MS2 coat protein [1] | apparent KD of MS2 coat protein [2] | apparent KD of MS2 coat protein [3] | apparent KD of MS2 coat protein [4]
GAAAUACAUGAGGAUCACCCAUGUAAGGAUAUGCUAGCGGUCGGCUGACUGACUGCUAGCAGAAGGUACAUGAU [Mat - Mod of JL D81] (puzzle: Exclusion 1) |  |  |  | 67.5 nM |  | 
UCUGGUCGAGGAUAUACAUGAGGAUCACCCAUGUUGAUCAACUGCCGAUAGGCAGAAUGUAGAAGGCGACCAGA [E3/7-A3] (Eterna round: R97, puzzle: Exclusion 3) | 176 nM | 865 nM |  |  |  | 
UACAUGAGGAUCACCCAUGUUUUGUCGUGUAUGGUAUUUAUCUAGGAUAUCGUGUUAUUUAACCACGAGAAGGAGAGUAUCAAU [MOD3 Solution 21 by JMF] (Eterna round: R96, puzzle: Exclusion NG 3) |  |  |  |  |  | 21.5 nM
AAAACACAUGAGGAUCACCCAUGUGAGGAUAUGUUAGUUUCGGCGAAAGCCGAAAUUAACAGAAGGCACAGAAA [JR_Exclusion1_Sub023] (puzzle: Exclusion 1) |  |  | 44.7 nM | 39.4 nM | 40.1 nM | 
AUAAUGUAAGGAUAUCAGUCGACUAGCUGCGGCUAGUCGACUGAGAAGGUACAUGAGGAUCACCCAUGUGAUUA [E4/10-A3] (Eterna round: R97, puzzle: Exclusion 4) | 889 nM | 138 nM |  |  |  | 
GAGAUGUGAGGAUAUCUAGACCGCGGAAGAGCUGCGGUCCGAGAGAAGGCACAUGAGGAUCACCCAUGUGAUGA [Attere] (puzzle: Exclusion 4) |  |  |  | 38.4 nM |  | 
AUGAAAGUAGGAUAUCGACUGAUUGACAUGAGGAUCACCCAUGUGGUUCUGUGCGGUGUUCGAGAAGGGCUAAGAU [Mageer] (puzzle: Exclusion 5) |  |  | 23.1 nM | 15.7 nM | 20.9 nM | 
AAAAUAAUAAGUUUACGAACAUUUAGAAAAAGGGAUCCAACAUGAGGAUCACCCAUGUAUUAUCAGCAUAAACCCUA [JR_Sensorv2_tov2_Sub1270] (Eterna round: R96, puzzle: Sensor v2, turn-off variant 2) | 341 nM | 360 nM |  |  |  | 270 nM
AUUAUGUAAGGAUAUCUUACAUGUGACUUCGGUCACUGUCAAGAGAAGGUACAUGAGGAUCACCCAUGUAUGAC [Ex4-3: 49] (puzzle: Exclusion 4) |  |  |  | 14.2 nM |  | 
CGAUUGUGAGGAUAUACUUGUGGUAAUGCACCUGUAUGUAAACAUGAGGAUCACCCAUGUAGAAGGUACGACAG [Eternabot (L2) Solution 11] (Eterna round: R97, puzzle: Exclusion 2) | 27.6 nM | 27.5 nM |  |  |  | 
GCGCCUUGAGUGAGGAUAUGUUCAUAGUCGCUUGGAUAGAAGGCACAUGAGGAUCACCCAUGUAUCGGAGUUAA [Eternabot (L2) Solution 39] (Eterna round: R97, puzzle: Brourd's mod of Exclusion 4) | 48.2 nM | 33.9 nM |  |  |  | 
CCUGCGGACAAAGGAUAUUGCGGUGGCCGGCUCGGCGUACCGAGCCUACAUGAGGAUCACCCAUGUAAGAAGGUUGUCGUUGGU [JL ViennaUCT Qudice mod] (Eterna round: R96, puzzle: Exclusion NG 2) | 186 nM | 33.5 nM |  |  |  | 26.9 nM
GCAGGAUAAGUCAGGAUAUACCUAUGGAUACAUAGGUAGAAGGGACAUGAGGAUCACCCAUGUGACUCGCCUGC [Fiskers BMX 4 - 73] (puzzle: Brourd's mod of Exclusion 4) |  |  |  | 27.6 nM |  | 
AGUACUAACACGAAAGUGUUAGUACAAUAAGCUUGUGUUACAUGAGGAUCACCCAUGUCCUCAUAAGCUCGUCUUAU [JL-sv3-2.14 mat747 mod] (puzzle: Sensor v3, turn-off variant 2) |  |  | 100 nM | 48.5 nM | 98.1 nM | 
AAUAACAGAGGAUAUACUAUUUUAUGUGUUUGUUGUUUUAAACAUGAGGAUCACCCAUGUAGAAGGCUGAGUAA [JMF 33] (puzzle: Exclusion 2) |  |  |  | 21.8 nM |  | 
UAAGCAAGUGAGCCGAUUCACAUGAGGAUCACCCAUGUAAGAGAGGAUAUUUGAUUGGAUCGAUUAGAGAAGGUUCUAAUGUGG [Eternabot solution 25] (Eterna round: R96, puzzle: Exclusion NG 3) | 87.2 nM | 37.2 nM |  |  |  | 28.9 nM
UAUAUAUAGUAAGGAUAUGUAUUCAUUUUAUAAACAGAAGGUACUGACAUGAGGAUCACCCAUGUUUUAGUGUGGGCAUGUAGA [JMF's solution 10] (Eterna round: R96, puzzle: Exclusion NG 1) |  |  |  |  |  | 64.1 nM
